The values below come from article PMC8301817, “Phylogenetic Diversity of Lhr Proteins and Biochemical Activities of the Thermococcales aLhr2 DNA/RNA Helicase”.

One may read the Kd as the concentration at which binding is half-saturated.

Assay in all cases: filter binding; 5 mM Mg2+; 25 mM Tris-HCl pH 8, 50 mM NaAc, 5 mM MgCl2, 2.5 mM beta-mercaptoethanol; protein preincubated 10 min 65 C, binding 15 min 30 C; 0.5 nM substrate (Methods); Resu
The target of series [1] is T1, Tbar-aLhr2-ΔDom4 (Thermococcus barophilus, UniProt F0LJX3 1-513).
T1 sequence: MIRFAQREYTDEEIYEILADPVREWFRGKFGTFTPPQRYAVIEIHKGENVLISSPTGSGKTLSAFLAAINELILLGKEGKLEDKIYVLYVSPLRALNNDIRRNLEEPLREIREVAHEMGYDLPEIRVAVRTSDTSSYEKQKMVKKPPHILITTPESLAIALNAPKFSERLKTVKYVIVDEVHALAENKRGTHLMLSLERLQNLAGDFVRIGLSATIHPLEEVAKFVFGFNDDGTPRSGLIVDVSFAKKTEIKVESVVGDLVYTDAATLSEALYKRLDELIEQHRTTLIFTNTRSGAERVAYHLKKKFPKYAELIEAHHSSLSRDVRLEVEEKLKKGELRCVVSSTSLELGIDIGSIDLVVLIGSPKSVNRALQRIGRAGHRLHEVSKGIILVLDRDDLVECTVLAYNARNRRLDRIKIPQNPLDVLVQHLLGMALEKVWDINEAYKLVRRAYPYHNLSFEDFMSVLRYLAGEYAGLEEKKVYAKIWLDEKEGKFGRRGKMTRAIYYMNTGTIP
The following applies: protein: recombinant; tags: untagged; label: 5'-32P; single strand.

Series [2] has as its target T2, Tbar-aLhr2 WT (Thermococcus barophilus, UniProt F0LJX3 1-863).
T2 sequence: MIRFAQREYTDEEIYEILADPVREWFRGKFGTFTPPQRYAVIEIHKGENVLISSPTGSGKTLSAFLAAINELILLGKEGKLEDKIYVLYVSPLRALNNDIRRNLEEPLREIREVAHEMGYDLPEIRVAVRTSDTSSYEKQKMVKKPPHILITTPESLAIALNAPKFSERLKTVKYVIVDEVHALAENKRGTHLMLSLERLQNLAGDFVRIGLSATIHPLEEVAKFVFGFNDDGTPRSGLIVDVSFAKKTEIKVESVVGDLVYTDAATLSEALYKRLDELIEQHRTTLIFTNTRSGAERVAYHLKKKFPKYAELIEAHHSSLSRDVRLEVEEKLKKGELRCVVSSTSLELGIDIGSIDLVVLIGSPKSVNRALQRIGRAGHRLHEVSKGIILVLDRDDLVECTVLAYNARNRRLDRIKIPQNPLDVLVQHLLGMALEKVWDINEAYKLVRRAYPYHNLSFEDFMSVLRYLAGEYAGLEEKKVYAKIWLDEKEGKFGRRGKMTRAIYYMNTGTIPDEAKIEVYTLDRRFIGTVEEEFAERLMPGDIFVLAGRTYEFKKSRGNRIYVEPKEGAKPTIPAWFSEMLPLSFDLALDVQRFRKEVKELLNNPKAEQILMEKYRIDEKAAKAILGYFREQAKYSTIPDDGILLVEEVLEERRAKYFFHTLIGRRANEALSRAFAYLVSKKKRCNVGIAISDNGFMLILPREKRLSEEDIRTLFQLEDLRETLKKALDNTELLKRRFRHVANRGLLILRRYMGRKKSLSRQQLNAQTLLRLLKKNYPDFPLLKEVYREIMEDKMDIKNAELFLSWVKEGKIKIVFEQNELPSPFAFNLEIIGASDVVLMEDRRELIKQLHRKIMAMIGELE
To be noted: protein: recombinant, tags: untagged, chain copies: 4.

In series [3] the target is T3, Tbar-aLhr2-Dom4 (Thermococcus barophilus, UniProt F0LJX3 514-863).
T3 sequence: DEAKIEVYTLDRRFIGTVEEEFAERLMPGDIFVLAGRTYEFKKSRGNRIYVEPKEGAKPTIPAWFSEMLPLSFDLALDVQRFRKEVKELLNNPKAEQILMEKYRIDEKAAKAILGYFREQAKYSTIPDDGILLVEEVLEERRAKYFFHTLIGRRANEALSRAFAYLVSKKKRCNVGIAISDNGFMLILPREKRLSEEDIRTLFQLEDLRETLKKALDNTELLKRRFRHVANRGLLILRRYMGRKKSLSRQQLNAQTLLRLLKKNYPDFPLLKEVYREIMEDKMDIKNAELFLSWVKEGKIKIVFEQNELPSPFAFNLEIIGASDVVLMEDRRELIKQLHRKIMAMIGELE
The following applies: protein: recombinant; tags: untagged; label: 5'-32P; single strand.

Series [4] concerns the target T4, Paby-Hel308 (Pyrococcus abyssi, UniProt Q9V0A9 1-715).
T4 sequence: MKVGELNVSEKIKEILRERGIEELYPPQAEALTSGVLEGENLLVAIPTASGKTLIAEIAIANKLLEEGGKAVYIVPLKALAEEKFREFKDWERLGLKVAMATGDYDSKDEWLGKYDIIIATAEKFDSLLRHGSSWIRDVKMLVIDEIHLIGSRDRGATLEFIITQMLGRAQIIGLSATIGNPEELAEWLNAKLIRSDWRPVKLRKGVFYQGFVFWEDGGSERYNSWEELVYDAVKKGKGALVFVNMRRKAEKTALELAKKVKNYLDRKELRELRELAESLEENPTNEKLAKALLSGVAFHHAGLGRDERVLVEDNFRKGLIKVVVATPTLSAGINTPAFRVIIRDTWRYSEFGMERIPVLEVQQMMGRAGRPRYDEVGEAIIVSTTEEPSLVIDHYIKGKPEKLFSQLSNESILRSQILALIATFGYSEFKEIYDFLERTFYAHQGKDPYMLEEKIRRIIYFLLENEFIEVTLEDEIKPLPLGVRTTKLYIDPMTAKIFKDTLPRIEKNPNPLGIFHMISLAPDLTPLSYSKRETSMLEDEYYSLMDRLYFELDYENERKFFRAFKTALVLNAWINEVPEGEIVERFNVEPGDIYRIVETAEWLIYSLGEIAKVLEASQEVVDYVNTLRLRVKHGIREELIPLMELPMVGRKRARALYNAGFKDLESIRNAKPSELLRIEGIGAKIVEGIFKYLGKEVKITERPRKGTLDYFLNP
The following applies: protein: recombinant, tags: untagged.

Where [5] appears, read: label: 5'-32P on DNA31, 3' overhang 28 nt.

GGACATGCTGTCTAGAGACTATCGAT (ssDNA) [DNA26]: the Kd in series [1] stood at 211 ± 9 nM; in series [2] (label: 5'-32P, single strand), 58 ± 2 nM; in series [3], 277 ± 16 nM.

B1: 3'DNA59:DNA31 (dsDNA)
DNA 1: GACGCTGCCGAATTCTACCAGTGCCTTGCTAGGACATCTTTGCCCACCTGCAGGTTCAC
DNA 2: TAGCAAGGCACTGGTAGAATTCGGCAGCGTC
Take B1: the Kd in series [2] (setting [5]) is 41 ± 2 nM; in series [4] (setting [5]) it was 23 ± 1 nM.
Take ATCGATAGTCTCTAGACAGCATGTCCTAGCAAGCCAGAATTCGGCAGCGT (ssDNA) [DNA50]: the Kd in series [1] came to 54 ± 1 nM; in series [2] (label: 5'-32P, single strand), 39 ± 1 nM; in series [3], 162 ± 5 nM; in series [4] (label: 5'-32P, single strand), 32 ± 2 nM.
With ACGCUGCCGAAUUCUGGCUUGCUAGG (ssRNA) [RNA26], the dissociation constant (Kd) in series [1] amounted to 150 ± 1 nM; in series [2] (label: 5'-32P, single strand), 80 ± 2 nM; in series [3], 241 ± 17 nM.
Consider AUCGAUAGUCUCUAGACAGCAUGUCCUAGCAAGCCAGAAUUCGGCAGCGU (ssRNA) [RNA50], for which the Kd turned out to be 69 ± 1 nM in series [1]; 41 ± 1 nM in series [2] (label: 5'-32P, single strand); 161 ± 5 nM in series [3]; 38 ± 1 nM in series [4] (label: 5'-32P, single strand).

B2: 3'RNA50:RNA26 (dsRNA)
RNA 1: AUCGAUAGUCUCUAGACAGCAUGUCCUAGCAAGCCAGAAUUCGGCAGCGU
RNA 2: GGACAUGCUGUCUAGAGACUAUCGAU
Take B2: the equilibrium dissociation constant (Kd) in series [2] (label: 5'-32P on RNA26, 3' overhang 24 nt) amounted to 39 ± 2 nM.
